# Reference: paper PMC5587807
# Experiments:
# [1] = test system: DNA polymerase beta (Pol β) WT (human); test: EMSA; conditions: EMSA: 50 nM substrate, 50 mM Hepes pH 7.5, 37 mM KCl, 5 mM MgCl2, 0.5 mM EDTA, 100 ug/ml BSA, on ice 10 min, gel at 4 C, FA: 50 mM Hepes pH 7.5, 20 mM KCl, 2 mM
# [2] = test system: Pol β V303C, 5-iodoacetamidofluorescein labeled; test: fluorescence anisotropy; conditions: 5'-phosphorylated tetrahydrofuran at 5' end of nick; biotin at 5' ends; EMSA: 50 nM substrate, 50 mM Hepes pH 7.5, 37 mM KCl, 5 mM MgCl2, 0.5 mM EDTA, 100 ug/ml BSA, on ice 10 min, gel at 4 C; FA: 50 mM Hepes pH 7.5, 20 mM KCl, 2 mM
# [3] = 5'-phosphorylated tetrahydrofuran at 5' end of nick
substance,measurement,setting,value
DNA-5'-P-THF-O (-35),Kd,[1]; [3],20 nM
DNA-gI (-49),Kd,[1]; 5'-phosphate and 3'-OH at gap,30 nM
DNA-gO (-35),Kd,[1]; 5'-phosphate and 3'-OH at gap,20 nM
NCP-5'-P-THF-O (-35),Kd,[1]; [3],360 nM
"NCP-5'-P-THF-O (-35), 5'-biotin",Kd,[2],280 nM
NCP-gI (-49),Kd,[1]; 5'-phosphate and 3'-OH at gap,170 nM
NCP-gO (-35),Kd,[1]; 5'-phosphate and 3'-OH at gap,460 nM
UND NCP,Kd,[1],740 nM
UND-DNA,Kd,[1],50 nM
